Measurements as given in article PMC7088246.

Target: recombinant glycosylated HIV-1 IIIB gp120 (baculovirus) (HIV-1 IIIB) (UniProt P04578)
Assay: SPR

Work on “His-tagged recombinant KAA-1 (natural protein)” yielded a Ka of 1.48e+09 M⁻¹, a Kd of 0.677 nM and a kon of 871000 M⁻¹ s⁻¹.
Substance “recombinant KAA-1 (His tag removed by thrombin) (natural protein)” has a Ka of 1.61e+09 M⁻¹, a Kd of 0.622 nM and a koff of 0.000529 s⁻¹.
